# Test results published in US5783681, “Androgen regulation with DNA sequences of rat probasin gene” (University of Manitoba).
# B1: probasin -244 to -96 (dsDNA)
# DNA 1: ATGATAGCATCTTGTTCTTAGTCTTTTTCTTAATAGGGACATAAAGCCCACAAATAAAAATATGCCTGAAGAATGGGACAGGCATTGGGCATTGTCCATGCCTAGTAAAGTACTCCAAGAACCTATTTGTATACTAGATGACACAATGT
# DNA 2: ACATTGTGTCATCTAGTATACAAATAGGTTCTTGGAGTACTTTACTAGGCATGGACAATGCCCAATGCCTGTCCCATTCTTCAGGCATATTTTTATTTGTGGGCTTTATGTCCCTATTAAGAAAAAGACTAAGAACAAGATGCTATCAT
# B2: probasin -158 to +28 (dsDNA)
# DNA 1: GGGCATTGTCCATGCCTAGTAAAGTACTCCAAGAACCTATTTGTATACTAGATGACACAATGTCAATGTCTGTGTACAACTGCCAACTGGGATGCAAGACACTGCCCATGCCAATCATCCTGAAAAGCAGCTATAAAAAGCAGGAAGCTACTCTGCACCTTGTCAGTGAGGTCCAGATACCTACAG
# DNA 2: CTGTAGGTATCTGGACCTCACTGACAAGGTGCAGAGTAGCTTCCTGCTTTTTATAGCTGCTTTTCAGGATGATTGGCATGGGCAGTGTCTTGCATCCCAGTTGGCAGTTGTACACAGACATTGACATTGTGTCATCTAGTATACAAATAGGTTCTTGGAGTACTTTACTAGGCATGGACAATGCCC
# Legend:
# [1] = target: T1, glucocorticoid receptor (GR) (Rattus norvegicus) (UniProt P06536); experiment: cell_activity; conditions: DEX, CAT reporter
# T1 sequence: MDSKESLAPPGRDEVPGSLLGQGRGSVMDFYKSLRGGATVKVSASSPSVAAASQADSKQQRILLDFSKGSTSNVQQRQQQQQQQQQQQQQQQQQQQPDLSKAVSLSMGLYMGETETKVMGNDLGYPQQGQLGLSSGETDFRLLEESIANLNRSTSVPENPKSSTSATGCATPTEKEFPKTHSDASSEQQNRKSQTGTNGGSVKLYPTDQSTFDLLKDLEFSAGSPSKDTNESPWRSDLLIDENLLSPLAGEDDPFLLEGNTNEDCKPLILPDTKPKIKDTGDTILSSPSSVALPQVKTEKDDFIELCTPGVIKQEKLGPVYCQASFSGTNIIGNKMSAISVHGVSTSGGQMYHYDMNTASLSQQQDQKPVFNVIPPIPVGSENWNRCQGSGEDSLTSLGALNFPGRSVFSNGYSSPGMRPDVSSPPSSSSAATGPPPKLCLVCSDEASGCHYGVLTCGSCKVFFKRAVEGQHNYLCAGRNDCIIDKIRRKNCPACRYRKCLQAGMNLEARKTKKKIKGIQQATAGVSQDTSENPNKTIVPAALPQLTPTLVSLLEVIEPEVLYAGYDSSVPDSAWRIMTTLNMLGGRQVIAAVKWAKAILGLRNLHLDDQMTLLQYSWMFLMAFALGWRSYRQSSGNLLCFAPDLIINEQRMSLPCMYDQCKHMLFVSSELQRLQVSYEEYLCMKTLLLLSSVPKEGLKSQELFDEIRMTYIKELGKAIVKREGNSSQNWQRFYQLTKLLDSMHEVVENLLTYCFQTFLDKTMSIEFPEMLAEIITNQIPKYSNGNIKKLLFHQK
# [2] = target: androgen receptor V865M V865M (Homo sapiens) (UniProt P10275); experiment: cell_activity; conditions: 10 nM DHT; background 4.2
# [3] = target: T2, androgen receptor (hAR) wild type (Homo sapiens) (UniProt P10275); experiment: cell_activity; conditions: 10 nM DHT; background 4.2
# T2 sequence: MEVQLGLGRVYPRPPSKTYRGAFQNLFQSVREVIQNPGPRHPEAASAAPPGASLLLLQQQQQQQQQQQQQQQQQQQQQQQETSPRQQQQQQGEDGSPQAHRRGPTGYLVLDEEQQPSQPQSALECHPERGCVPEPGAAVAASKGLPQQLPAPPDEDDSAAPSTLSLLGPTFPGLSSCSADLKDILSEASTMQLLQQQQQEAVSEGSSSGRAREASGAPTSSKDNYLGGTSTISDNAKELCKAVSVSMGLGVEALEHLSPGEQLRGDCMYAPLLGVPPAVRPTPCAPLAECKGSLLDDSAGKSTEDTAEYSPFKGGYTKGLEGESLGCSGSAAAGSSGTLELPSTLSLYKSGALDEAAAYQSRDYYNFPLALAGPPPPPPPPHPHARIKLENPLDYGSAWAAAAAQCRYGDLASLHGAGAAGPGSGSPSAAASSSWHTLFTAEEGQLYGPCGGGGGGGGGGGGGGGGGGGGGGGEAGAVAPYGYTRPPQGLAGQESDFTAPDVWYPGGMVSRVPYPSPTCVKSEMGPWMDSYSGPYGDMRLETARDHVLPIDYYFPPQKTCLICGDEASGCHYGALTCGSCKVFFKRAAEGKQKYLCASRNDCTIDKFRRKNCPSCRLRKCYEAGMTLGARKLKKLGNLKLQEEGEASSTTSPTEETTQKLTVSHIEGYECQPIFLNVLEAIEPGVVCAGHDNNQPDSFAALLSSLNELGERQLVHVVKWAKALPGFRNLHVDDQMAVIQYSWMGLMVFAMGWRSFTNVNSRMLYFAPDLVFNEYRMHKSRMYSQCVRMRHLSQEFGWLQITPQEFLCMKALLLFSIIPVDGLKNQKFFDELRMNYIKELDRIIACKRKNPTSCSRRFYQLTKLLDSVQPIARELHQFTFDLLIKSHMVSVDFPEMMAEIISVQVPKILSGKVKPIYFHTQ
# [4] = target: T3, androgen receptor V865L V865L (Homo sapiens) (UniProt P10275); experiment: cell_activity; conditions: 10 nM DHT; background 4.2
# T3 sequence: T2 sequence
# [5] = target: T4, androgen receptor (AR) (Rattus norvegicus) (UniProt P15207); experiment: cell_activity; conditions: DHT, CAT reporter
# T4 sequence: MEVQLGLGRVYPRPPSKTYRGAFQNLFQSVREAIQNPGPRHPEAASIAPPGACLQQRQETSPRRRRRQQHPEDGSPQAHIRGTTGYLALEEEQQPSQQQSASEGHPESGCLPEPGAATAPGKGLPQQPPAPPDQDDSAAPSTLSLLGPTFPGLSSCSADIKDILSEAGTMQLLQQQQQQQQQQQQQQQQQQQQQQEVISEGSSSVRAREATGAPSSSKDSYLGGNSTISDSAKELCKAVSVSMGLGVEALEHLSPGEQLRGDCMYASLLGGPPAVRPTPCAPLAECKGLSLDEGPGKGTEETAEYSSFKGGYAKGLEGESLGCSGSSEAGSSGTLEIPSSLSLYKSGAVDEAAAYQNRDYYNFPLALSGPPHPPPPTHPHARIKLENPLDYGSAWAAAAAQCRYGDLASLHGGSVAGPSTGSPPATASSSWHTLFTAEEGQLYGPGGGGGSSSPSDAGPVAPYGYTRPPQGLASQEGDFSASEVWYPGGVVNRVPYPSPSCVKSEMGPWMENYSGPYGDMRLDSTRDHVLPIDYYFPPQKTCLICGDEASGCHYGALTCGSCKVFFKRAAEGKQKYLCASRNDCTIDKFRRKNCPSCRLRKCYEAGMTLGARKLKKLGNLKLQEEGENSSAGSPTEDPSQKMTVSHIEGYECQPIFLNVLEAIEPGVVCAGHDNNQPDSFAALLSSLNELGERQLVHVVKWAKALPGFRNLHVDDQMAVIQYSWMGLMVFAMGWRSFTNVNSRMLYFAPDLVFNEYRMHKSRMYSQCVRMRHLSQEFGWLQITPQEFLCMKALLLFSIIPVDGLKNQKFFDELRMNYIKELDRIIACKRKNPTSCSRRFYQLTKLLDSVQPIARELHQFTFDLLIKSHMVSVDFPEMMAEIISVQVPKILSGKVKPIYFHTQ
# androgen receptor (AR) [6] = target: T5, androgen receptor (AR) (Rattus norvegicus, UniProt P15207 P15207:1-902); experiment: cell_activity; DHT, TK promoter CAT reporter; conditions: chain copies: 2
# Procedure: (§1) Cells which had undergone transient transfection were harvested in phosphate buffered saline containing 1 mM EDTA. After centrifugation at 2000×g for 4 min at room temperature, cells were lysed in 0.1M Tris-HCl/0.1% Triton X-100, pH 7.8 for 15 min on ice. Insoluble material was removed by centrifugation at 14,500×g, 15 minutes, at 4° C. The CAT activity in the cell extract was determined by a two-phase fluor diffusion assay (Nachtigal et al., 1989). Also, the DNA was isolated from the insoluble material and 2 µg samples were placed in duplicate on nitrocellulose membrane via slot-blot apparatus and probed with ^32P-labelled CAT insert DNA. Autoradiograms were analyzed by densitometry and all CAT activity data was normalized for transfection efficiency. For transgenic mice, a total cellular extract of each tissue was assayed for CAT activity.
# (§2) Due to the lack of appropriate cell lines containing either androgen receptors and/or prostatic in origin, a range of cell lines was tested. The human prostatic cells LNCaP would express and androgen regulate PB-CAT-while HeLa, prostatic DU-145 and PC-3 cells required co-transfection of an androgen receptor expression vector for androgen regulation. […]
# [7] = target: T6, glucocorticoid receptor (GR) (Rattus norvegicus, UniProt P06536 P06536:1-795); experiment: cell_activity; DEX, TK promoter CAT reporter; conditions: chain copies: 2
# Procedure: as §1, §2
# [8] = target: T6, glucocorticoid receptor (GR); experiment: cell_activity; DEX, CAT reporter; conditions: chain copies: 2
# Procedure: as §1, §2
# androgen receptor (AR) [9] = target: T5, androgen receptor (AR); experiment: cell_activity; DHT, CAT reporter; conditions: chain copies: 2
# Procedure: as §1, §2
molecule,measurement,setting,value
ATAGCATCTTGTTCTTAGTGGGCATTGTCCATGCCTAGTAAAGTACTCCAAGAACCTATTTGTATACTAGATGACACAATGTCAATGTCTGTGTACAACTGCCAACTGGGATGCAAGACACTGCCCATGCCAATCATCCTGAAAAGCAGCTATAAAAAGCAGGAAGCTACTCTGCACCTTGTCAGTGAGGTCCAGATACCTACAG (double strand) [ARE-1 adjacent to probasin -158 to +28],activity (fold induction),[1],21
TAGTCATCATGTTTAAACATCTACCATTCCAGTTAAGAAAATATGATAGCATCTTGTTCTTAGTCTTTTTCTTAATAGGGACATAAAGCCCACAAATAAAAATATGCCTGAAGAATGGGACAGGCATTGGGCATTGTCCATGCCTAGTAAAGTACTCCAAGAACCTATTTGTATACTAGATGACACAATGTCAATGTCTGTGTACAACTGCCAACTGGGATGCAAGACACTGCCCATGCCAATCATCCTGAAAAGCAGCTATAAAAAGCAGGAAGCTACTCTGCACCTTGTCAGTGAGGTCCAGATACCTACAG (double strand) [probasin -286 to +28],activity (dpm/min/mg protein),[2],42
TAGTCATCATGTTTAAACATCTACCATTCCAGTTAAGAAAATATGATAGCATCTTGTTCTTAGTCTTTTTCTTAATAGGGACATAAAGCCCACAAATAAAAATATGCCTGAAGAATGGGACAGGCATTGGGCATTGTCCATGCCTAGTAAAGTACTCCAAGAACCTATTTGTATACTAGATGACACAATGTCAATGTCTGTGTACAACTGCCAACTGGGATGCAAGACACTGCCCATGCCAATCATCCTGAAAAGCAGCTATAAAAAGCAGGAAGCTACTCTGCACCTTGTCAGTGAGGTCCAGATACCTACAG (double strand) [probasin -286 to +28 ARE2*],activity (dpm/min/mg protein),[3],177
same,activity (dpm/min/mg protein),[4],122
same,activity (dpm/min/mg protein),[2],49
ATGATAGCATCTTGTTCTTAGTCTTTTTCTTAATAGGGACATAAAGCCCACAAATAAAAATATGCCTGAAGAATGGGACAGGCATTGGGCATTGTCCATGCCTAGTAAAGTACTCCAAGAACCTATTTGTATACTAGATGACACAATGTCAATGTCTGTGTACAACTGCCAACTGGGATGCAAGACACTGCCCATGCCAATCATCCTGAAAAGCAGCTATAAAAAGCAGGAAGCTACTCTGCACCTTGTCAGTGAGGTCCAGATACCTACAG (double strand) [probasin -244 to +28],activity (fold induction),[5],49
same,activity (fold induction),[1],9
B1,activity,androgen receptor (AR) [6],61 fold induction
same,activity,[7],96 fold induction
B2,activity,[8],1.2 fold induction
same,activity,androgen receptor (AR) [9],1.4 fold induction
